B1: LINE1-mini (parent)
chain: GGCAGAGCUCAACACAGCGUGGCAAAGUGGCUGUGGCUAGACUGCC

Variants of: B1
Test: self-cleavage, relative activity (ratio to wild type); higher = more cleavage; in vitro, sequencing; the parent is a self-cleaving ribozyme
GGCAGAGCACAACACAGCGUGGCAAAGUGGCUGUGGCUAGACUCCC gave a self-cleavage of 0.07. For GGCAGAGCUCAACACAGCGUUGCAAAGUGGCUGUGGCCAGACUGCC, the self-cleavage was 0.9. With GGCAGAGCUCAGCACAGCGUGGCAAAGUGGCUGUGACUAGACUGCC the self-cleavage was 0.06. Work on GGCAGAGCUCAACACAGCGUGGCAUAGUGCCUGUGGCUAGACUGCC yielded a self-cleavage of 0.46. In the case of GGCAGAGUUCAACGCAGCGUGGCAAAGUGGCUGUGGCUAGACUGCC, the self-cleavage is reported as 0.19. GGCAGAGCUCAACACAGCCUGGCAAAGUGGCCGUGGCUAGACUGCC showed a self-cleavage of 0.14. For GGCUGAGCUCAACACAGCGUGGCAAAGUGACUGUGGCUAGACUGCC, the self-cleavage was 0.42. For GGCAGAGCUCAACACAGCGUGGCAAAGUAGCAGUGGCUAGACUGCC, the self-cleavage was 0.4. Work on GGCAGAGCUCAACACAGCGUGGCAAAGUGCCUGUGGCUAGUCUGCC yielded a self-cleavage of 0.73. For GGCAGAGCUCAACAAAGCGUGGCAAAGUGGCUGUGGCUAGACUCCC, the self-cleavage was 0.04. GGCAGAGCUCAACACAGCGUGGCAAAGUGGCGGUAGCUAGACUGCC showed a self-cleavage of 0.09. GGCAGAGCUCAACACAGCGUGGCAAAGUGGCGGUUGCUAGACUGCC showed a self-cleavage of 0.06. Work on GGCAGAGCUCAACACAGCGUGGCAAAGUGGCUGUGCCUAGCCUGCC yielded a self-cleavage of 0.05. GGCAGAGCUCAACACAGCGUGGCAAAGUGGCUGCGGCUAGACAGCC showed a self-cleavage of 0.11. Variant GGCAGAGGUCAACACAGCGUGGCAAAGUGGCUGUGGUUAGACUGCC has a self-cleavage of 0.05. In the case of GGCAGAGCUCAUCACAGCGUGGCCAAGUGGCUGUGGCUAGACUGCC, the self-cleavage is reported as 0.24. Variant GGCAGAGCUCAACACAGCGCGGCCAAGUGGCUGUGGCUAGACUGCC has a self-cleavage of 0.31. In the case of GGCAGAGCUGAACACUGCGUGGCAAAGUGGCUGUGGCUAGACUGCC, the self-cleavage is reported as 0.06. GGCAGAGCUCAACACAGCGUGGCAAAGUGCCUGUUGCUAGACUGCC gave a self-cleavage of 0.19. Variant GGCAGUGCUCAACACAGGGUGGCAAAGUGGCUGUGGCUAGACUGCC has a self-cleavage of 0.24. Work on GGCGGAGCUCAACACAGCGUGGCAAAGUGGCUGUGGCUGGACUGCC yielded a self-cleavage of 0.22. GGCAGAGCUCAACACAGCAUGGAAAAGUGGCUGUGGCUAGACUGCC showed a self-cleavage of 0.96. GGCAGAGCUCAACACAGCGUAGCAAAGUGGCUGUGGCUAGACUGCU gave a self-cleavage of 1.39. GGCAGAGCUCAACACAGCGUGGCAAAAUGGUUGUGGCUAGACUGCC gave a self-cleavage of 0.26. Work on GGCAGACCUCAACACAGCGUGGCAAAGUGGGUGUGGCUAGACUGCC yielded a self-cleavage of 0.06. With GGCAGAGCUCACCACAGCGUGGCAAAGUGGCUGUGGGUAGACUGCC the self-cleavage was 0.02. In the case of GGCAGAACACAACACAGCGUGGCAAAGUGGCUGUGGCUAGACUGCC, the self-cleavage is reported as 0.3. In the case of GGCAGAGCACAACACAGCGGGGCAAAGUGGCUGUGGCUAGACUGCC, the self-cleavage is reported as 0.16. In the case of GGCAGAGCUCAACACUGCGUGGCAUAGUGGCUGUGGCUAGACUGCC, the self-cleavage is reported as 0.1. Variant GGCAGAGCUCAACACAGCGUGGCAAAGUGGCUGUGGCUCUACUGCC has a self-cleavage of 0.11. Work on GGCAGAGCUCAACACAGCGUGGUAAAGUGGCUGUGGCUAGGCUGCC yielded a self-cleavage of 0.51. With GGCAGAGCUCAACACAGCGUGGCAAAGUAGCUGUGGCCAGACUGCC the self-cleavage was 0.44. With GGUAUAGCUCAACACAGCGUGGCAAAGUGGCUGUGGCUAGACUGCC the self-cleavage was 0.2. GGCAUAACUCAACACAGCGUGGCAAAGUGGCUGUGGCUAGACUGCC showed a self-cleavage of 0.43. For GGUAGUGCUCAACACAGCGUGGCAAAGUGGCUGUGGCUAGACUGCC, the self-cleavage was 0.38. With GGCAGACCUCAACACAGCGUGGCAAAGUGGCUGUGGCCAGACUGCC the self-cleavage was 0.1. For GGCAGAGCUCAACACACCGUGGCAAAGUGGCUGUGCCUAGACUGCC, the self-cleavage was 0.04. Variant GGCAGAGCUCCACACAGCGUGGCAAAGUGGCUGUGGAUAGACUGCC has a self-cleavage of 0.02. GGCAGAGCUCAACACAGCGUGGCCAAGUGGCUGUGGCUAGACUGCA showed a self-cleavage of 0.32. For GGCAGAGCUCAACACAGCGUGAAAAAGUGGCUGUGGCUAGACUGCC, the self-cleavage was 0.42. Variant GGCAGAGCUCAACAGAGCGUGGCAAAGUGGCUGUGGCUAGACUGCA has a self-cleavage of 0.11. Work on GGCAGAGCUCAACAUAGCGUGGCAAAGUGGCUGUGGCUAGAGUGCC yielded a self-cleavage of 0.09. GGCAGAGCUCAACAUAGCGUGGCAAAGUGGCUGUGGCUAGAUUGCC showed a self-cleavage of 0.11. For GGCAGAGCUCAACACAGCGUGGCAAAAUGGCUGUGGCUAGUCUGCC, the self-cleavage was 0.49. Variant GGCAGUGCUCAACACAGCGUGGCAAAGUGGCUGUGGCUAGACUGCA has a self-cleavage of 0.74. Work on GGCAGAGCUCAACACAGCGCGGCAAAGUGGCUGUGCCUAGACUGCC yielded a self-cleavage of 0.07. With GGCAGAGCUCAACACAGCGCGGCAAAGUGGCUGUGGCUUGACUGCC the self-cleavage was 0.37. For GGCAGAGCUCAACACAGCGUGGCACAGUGGCUGUGUCUAGACUGCC, the self-cleavage was 0.11. In the case of AGCAGAGCUCAACACAGCGUGGCAAAGUGGCUGUGACUAGACUGCC, the self-cleavage is reported as 0.18. GGCAGAGCUCAACACAGCGUGGCAAACUGGCUAUGGCUAGACUGCC gave a self-cleavage of 0.13. For GGCAGAGCUCAACACAGCGUGGCAAAGUGGCGGUGGCUAGAGUGCC, the self-cleavage was 0.14. GGCAGAGCUCAAGACAGCGUCGCAAAGUGGCUGUGGCUAGACUGCC showed a self-cleavage of 0.33. For GGCAGAGCUCAACACAGCUUGGCAAAGUGGCUGUGGAUAGACUGCC, the self-cleavage was 0.05. GGCAGAGUUCAUCACAGCGUGGCAAAGUGGCUGUGGCUAGACUGCC showed a self-cleavage of 0.29. Work on GCCAGAGCUCAACACAGCGUGGCAAAGUGGCUGUAGCUAGACUGCC yielded a self-cleavage of 0.06. UGCAGAGCUCAACACAGCGUGGAAAAGUGGCUGUGGCUAGACUGCC showed a self-cleavage of 0.36.

From the RNAGym collection of RNA variant scans (doi:10.7554/elife.90254)
